Laboratory results as given in article PMC3062965 (Apoptosis : an international journal on programmed cell …, 2010).
Where “and” joins values, the source holds several entries; their conditions need not be identical. Equal entries are not always repeated.

Target: full-length RAIDD (1-199) (human, UniProt P78560 1-199)
Assay: SEC-MALS

Chain of full-length RAIDD (1-199) (P78560 whole entry): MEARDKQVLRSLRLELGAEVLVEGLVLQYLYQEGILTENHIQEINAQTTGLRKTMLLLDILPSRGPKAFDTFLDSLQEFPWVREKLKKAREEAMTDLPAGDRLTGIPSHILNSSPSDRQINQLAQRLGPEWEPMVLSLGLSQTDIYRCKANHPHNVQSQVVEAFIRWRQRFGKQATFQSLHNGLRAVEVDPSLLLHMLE

B1: PIDD DD (777-883) (domain or fragment, human, UniProt Q9HB75 777-883, looked up)
chain: LNLGDAETGFLTQSNLLSVAGRLGLDWPAVALHLGVSYREVQRIRHEFRDDLDEQIRHMLFSWAERQAGQPGAVGLLVQALEQSDRQDVAEEVRAVLELGRRKYQDS
  stoichiometry N: 7 RAIDD per complex and 5 PIDD DD per complex
